In patent US20240116985A1 (published 2024):
Starred links: 1 amine or outer side, 2 acyl side, 3 side chain; linkers in the order of their positions; H or OH if unused. Positions of bridges follow the written chain, without caps; N, C: chain ends. Non-standard residues stand in square brackets, D forms with d. Primed or numbered codes have the meaning given here. PyrS2″ = (S)-3-amino-1-((pent-4-en-1-yloxy)carbonyl)pyrrolidine-3-carboxylic acid (stapling residue), C=CCCCOC(=O)N1CC[C@@](N[*:1])(C(=O)[*:2])C1; B5(24) = 2-amino-2-(pent-4-en-1-yl)hept-6-enoic acid, 2,2-bis(4-pentenyl)glycine (stitching residue), C=CCCCC(CCCC=C)(N[*:1])C(=O)[*:2]; EtGA = (S)-2-amino-3-((carboxymethyl)(ethyl)amino)propanoic acid, CCN(CC(=O)[*:3])C[C@H](N[*:1])C(=O)[*:2]; B5(3) = 2,2-bis(4-pentenyl)glycine (stitching residue), C=CCCCC(CCCC=C)(N[*:1])C(=O)[*:2]; Phe(2-OMe) = COc1ccccc1C[C@H](N)C(=O)O; Bta = N[C@@H](Cc1csc2ccccc12)C(=O)O; αAllylPro = C=CC[C@@]1(C(=O)O)CCCN1; tBuAla = CC(C)(C)C[C@H](N)C(=O)O; 3Thi = N[C@@H](Cc1ccsc1)C(=O)O; S8 = C=CCCCCCC[C@](C)(N)C(=O)O

How the values were obtained:
B-cat-Halo [1] = molecular target: T1, B-cat-Halo (UniProt P35222 1-781); assay: cell-based or functional assay
T1 sequence (looked up): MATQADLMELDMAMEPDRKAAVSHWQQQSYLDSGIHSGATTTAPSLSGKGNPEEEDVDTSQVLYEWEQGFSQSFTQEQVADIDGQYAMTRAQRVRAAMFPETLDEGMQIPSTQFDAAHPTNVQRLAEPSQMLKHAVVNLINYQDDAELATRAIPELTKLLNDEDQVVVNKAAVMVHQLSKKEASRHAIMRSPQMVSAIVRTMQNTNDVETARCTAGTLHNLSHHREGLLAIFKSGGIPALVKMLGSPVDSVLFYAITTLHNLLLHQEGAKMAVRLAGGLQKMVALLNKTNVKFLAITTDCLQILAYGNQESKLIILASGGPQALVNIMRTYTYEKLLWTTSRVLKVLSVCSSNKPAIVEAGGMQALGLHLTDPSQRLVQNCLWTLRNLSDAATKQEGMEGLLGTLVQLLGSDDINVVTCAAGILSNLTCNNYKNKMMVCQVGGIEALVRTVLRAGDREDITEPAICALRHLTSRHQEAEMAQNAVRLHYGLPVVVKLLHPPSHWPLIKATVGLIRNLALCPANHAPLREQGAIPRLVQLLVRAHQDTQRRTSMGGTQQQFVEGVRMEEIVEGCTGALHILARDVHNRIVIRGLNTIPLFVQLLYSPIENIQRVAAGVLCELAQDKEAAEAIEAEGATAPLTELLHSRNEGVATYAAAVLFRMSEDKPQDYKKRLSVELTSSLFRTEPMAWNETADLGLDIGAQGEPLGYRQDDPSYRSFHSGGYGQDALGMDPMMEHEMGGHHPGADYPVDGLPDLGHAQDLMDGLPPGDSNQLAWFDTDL

[2] = molecular target: T2, full-length beta-Catenin (Uniprot ID P35222) (Homo sapiens (Human), UniProt P35222 1-781); assay: fluorescence polarization competition; peptide titrated against 10 nM full-length beta-catenin + 10 nM 5FAM-TCF4(10-53) probe
T2 construct: The assay text says 'full-length'; also called bCat; B-Catenin
T2 sequence: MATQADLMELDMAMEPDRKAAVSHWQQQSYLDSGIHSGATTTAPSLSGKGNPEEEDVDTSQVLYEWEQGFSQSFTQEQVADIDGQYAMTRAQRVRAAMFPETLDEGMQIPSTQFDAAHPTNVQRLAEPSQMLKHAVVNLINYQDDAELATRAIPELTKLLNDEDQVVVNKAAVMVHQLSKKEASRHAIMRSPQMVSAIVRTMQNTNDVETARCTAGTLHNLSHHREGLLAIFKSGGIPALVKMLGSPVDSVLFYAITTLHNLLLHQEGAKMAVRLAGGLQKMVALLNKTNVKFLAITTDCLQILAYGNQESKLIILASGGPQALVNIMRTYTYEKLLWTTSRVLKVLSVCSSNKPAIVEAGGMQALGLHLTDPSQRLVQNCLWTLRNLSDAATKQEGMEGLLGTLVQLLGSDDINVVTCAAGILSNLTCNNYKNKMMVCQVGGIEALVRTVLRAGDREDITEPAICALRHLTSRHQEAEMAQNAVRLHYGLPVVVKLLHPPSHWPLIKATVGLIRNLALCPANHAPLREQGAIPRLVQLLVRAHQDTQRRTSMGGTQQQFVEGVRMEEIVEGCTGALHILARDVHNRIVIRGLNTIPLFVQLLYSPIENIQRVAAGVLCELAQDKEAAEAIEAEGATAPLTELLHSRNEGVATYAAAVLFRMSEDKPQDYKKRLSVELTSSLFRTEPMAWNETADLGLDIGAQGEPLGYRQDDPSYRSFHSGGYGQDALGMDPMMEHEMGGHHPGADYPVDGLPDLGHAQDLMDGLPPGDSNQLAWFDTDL
Description: The plate was incubated protected from light for 60 minutes at 20° C. prior to read. Reads were performed on a CLARIOstar plate reader (BMG Labtech) in duplicate, and data were fitted to a 1:1 binding model with hill slope using an in-house script. All provided concentrations are final concentrations.

[3] = molecular target: T3, beta-catenin in DLD1 TCF/LEF luciferase reporter cells (UniProt P35222 1-781); assay: cell-based or functional assay
T3 sequence (looked up): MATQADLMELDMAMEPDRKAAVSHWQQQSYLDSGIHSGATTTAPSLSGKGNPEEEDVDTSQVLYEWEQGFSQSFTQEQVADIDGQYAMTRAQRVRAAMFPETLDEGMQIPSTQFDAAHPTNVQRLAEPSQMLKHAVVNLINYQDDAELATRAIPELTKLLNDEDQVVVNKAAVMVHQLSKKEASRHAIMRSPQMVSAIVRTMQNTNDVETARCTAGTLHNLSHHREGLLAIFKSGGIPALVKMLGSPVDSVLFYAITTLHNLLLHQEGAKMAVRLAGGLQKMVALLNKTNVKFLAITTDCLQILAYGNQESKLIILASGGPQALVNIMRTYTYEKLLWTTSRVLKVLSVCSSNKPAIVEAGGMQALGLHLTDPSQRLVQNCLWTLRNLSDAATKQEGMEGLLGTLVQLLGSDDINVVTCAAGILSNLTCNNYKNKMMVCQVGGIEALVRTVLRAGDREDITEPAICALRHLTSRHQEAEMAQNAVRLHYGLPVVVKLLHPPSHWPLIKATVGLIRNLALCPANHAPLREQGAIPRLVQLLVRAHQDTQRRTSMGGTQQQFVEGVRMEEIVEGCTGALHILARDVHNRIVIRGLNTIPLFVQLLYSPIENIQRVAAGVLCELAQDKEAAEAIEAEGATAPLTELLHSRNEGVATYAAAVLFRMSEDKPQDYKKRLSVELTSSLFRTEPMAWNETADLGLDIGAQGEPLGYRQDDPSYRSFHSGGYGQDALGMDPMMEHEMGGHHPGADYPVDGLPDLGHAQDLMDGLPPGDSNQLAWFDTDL

B-cat-Halo [4] = molecular target: T4, B-cat-Halo (UniProt P35222 1-781); assay: cell-based or functional assay; remark: listed apart in the source
T4 sequence (looked up): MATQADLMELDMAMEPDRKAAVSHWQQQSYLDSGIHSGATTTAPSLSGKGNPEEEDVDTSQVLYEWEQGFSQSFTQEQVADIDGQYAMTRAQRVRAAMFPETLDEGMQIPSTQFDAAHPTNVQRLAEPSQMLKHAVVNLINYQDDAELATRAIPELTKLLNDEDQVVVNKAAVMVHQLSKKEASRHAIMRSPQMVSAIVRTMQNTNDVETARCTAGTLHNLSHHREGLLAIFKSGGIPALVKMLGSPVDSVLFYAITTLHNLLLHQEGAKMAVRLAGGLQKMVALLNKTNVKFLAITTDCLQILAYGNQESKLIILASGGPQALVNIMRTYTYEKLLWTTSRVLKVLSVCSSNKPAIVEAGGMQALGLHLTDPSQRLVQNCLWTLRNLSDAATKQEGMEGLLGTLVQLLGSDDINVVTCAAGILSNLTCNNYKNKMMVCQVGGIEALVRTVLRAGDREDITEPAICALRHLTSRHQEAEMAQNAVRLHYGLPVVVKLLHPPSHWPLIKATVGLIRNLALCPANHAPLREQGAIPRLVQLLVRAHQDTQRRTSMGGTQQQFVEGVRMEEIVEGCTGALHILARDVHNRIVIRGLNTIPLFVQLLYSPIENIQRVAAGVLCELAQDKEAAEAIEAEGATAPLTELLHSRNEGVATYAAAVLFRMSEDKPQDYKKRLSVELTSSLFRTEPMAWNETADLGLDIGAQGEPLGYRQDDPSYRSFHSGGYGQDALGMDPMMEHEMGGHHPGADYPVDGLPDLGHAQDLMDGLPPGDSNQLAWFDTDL

[5] = molecular target: T5, beta-catenin in DLD1 TCF/LEF luciferase reporter cells (UniProt P35222 2-781); assay: cell-based or functional assay
T5 sequence (looked up): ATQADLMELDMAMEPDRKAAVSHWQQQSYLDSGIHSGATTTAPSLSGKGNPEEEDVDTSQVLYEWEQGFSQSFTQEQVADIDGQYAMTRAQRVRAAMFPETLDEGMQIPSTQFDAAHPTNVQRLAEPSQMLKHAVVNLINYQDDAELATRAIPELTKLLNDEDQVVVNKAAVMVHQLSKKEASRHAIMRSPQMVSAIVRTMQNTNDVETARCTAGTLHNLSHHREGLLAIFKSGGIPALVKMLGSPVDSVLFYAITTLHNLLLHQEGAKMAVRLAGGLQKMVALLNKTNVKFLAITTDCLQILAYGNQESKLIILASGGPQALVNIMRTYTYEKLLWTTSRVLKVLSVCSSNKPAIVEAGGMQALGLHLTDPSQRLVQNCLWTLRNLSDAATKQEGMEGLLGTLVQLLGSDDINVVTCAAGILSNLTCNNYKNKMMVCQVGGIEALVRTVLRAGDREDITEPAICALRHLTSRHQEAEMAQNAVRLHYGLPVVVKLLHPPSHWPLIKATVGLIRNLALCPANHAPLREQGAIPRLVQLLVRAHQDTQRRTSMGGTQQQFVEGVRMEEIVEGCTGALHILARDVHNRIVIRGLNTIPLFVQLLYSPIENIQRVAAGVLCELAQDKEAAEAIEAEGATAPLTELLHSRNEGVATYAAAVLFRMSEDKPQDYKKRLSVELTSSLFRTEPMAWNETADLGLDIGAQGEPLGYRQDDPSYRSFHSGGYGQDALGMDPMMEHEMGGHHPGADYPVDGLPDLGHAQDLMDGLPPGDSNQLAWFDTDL

B1: I-437 (peptide)
peptide: Ac-[αAllylPro]DA[B5(24)]DEAAFN[S8][Phe(2-OMe)][Bta]Q-NH2
modifications: staple 1-4, 4-11
notes: Stapled peptide composition
B-cat-Halo [1]
  NanoBRET Abs IC50: 17.5 µM
[2]
  IC50: 0.026 µM

B2: I-807 (peptide)
peptide: Ac-[αAllylPro]D[tBuAla][B5(3)]DDAAFF[PyrS2″][3Thi][Bta]Q-NH2
modifications: staple 1-4, 4-11
[3]
  DLD1 reporter assay Abs IC50: 3.4 µM

B3: I-973 (peptide)
peptide: Ac-[αAllylPro]D[tBuAla][B5(3)]D[EtGA]AAFL[PyrS2″][3Thi][Bta]Q-NH2
modifications: staple 1-4, 4-11; also: later-eluting HPLC isomer
B-cat-Halo [4]
  NanoBRET Abs IC50: 19 µM
[5]
  DLD1 4% Abs IC50: 10.1 µM
